Assay results from the DeepSol protein solubility set.

test: soluble on expression in E. coli; label from the status in PepcDB or PDB records

Row | Sequence | soluble on expression in E. coli
1 | MIESERKQIIDLIKKEVIPAIGCTEPIAVALCVAKAAETLGMKPEKIEVLLSANILKNAMGVGIPGTDMVGLPIAVALGALIGRSEYQLEVLRDCTPEAVEQGKLFIAEKRICISLKEDITEKLYIEVICTAGSQKATAVIAGGHTTFVYIATDEKVLLDKQQTANEEEEDASLELNLRKVYDFALTSPLDEIRFILDTARLNKAAAEQAFKGNYGHSLGKMLRGTYEHKVMGDSVFSHILSYTSAACDARMAGAMIPVMSNSGSGNQGISATLPVVVFAEENGKTEEELIRALMLSHLTVIYIKQSLGRLSALCGCVVAATGSSCGITWLMGGNYNQVAFAVQNMIANLTGMICDGAKPSCALKVTTGVSTAVLSAMMAMEDRCVTSVEGIIDEDVDQSIRNLTRIGSQAMNETDKMVLDIMTHKGGC | not soluble
2 | MGSDKIHHHHHHMSKVFIVGAAGNVGRRLTQQLAQRGHTLMAMHRHPDQADAIQAAGGVSVLGDITQISATDLATLMSGNDAIVFSAGAGGKGIQLTNDVDGKGLELAVEAAQLAGIQRFILVSVFPDALRGGSVSASFENYMLVKKHADVHLVSTDLDWVILRPGTLLDEVGTGKVNAAVAIPYGSVSRDDVAATLVELIEQPKVNRIIIELTQGEIPINDAISRLVAQ | not soluble
3 | SLPSYVVPEEPLLSAPTVAELTQAVNGAVVSGDVALREREVMGVLAAGMTADHVLERLTDGMAVITPGDRSDVVLAVASAHAAEGFPSLSCIVLNGGFQLHPAIAALVSGLRLRLPVIATALGTYDTASAAASARGLVTATSQRKIDTALELMDRHVDVAGLLAQLTI | soluble
4 | MITFQEFVNYWFEAYAKIAVKQSTQKRYRELLIPAIKAIGTKPLSDIKPLDIQKIYMNLTGKLSDSTILKLHRLLHEIFKHAVMWEYISDNPVKKVLPPSPELEHHHHHH | soluble
5 | MEERPSETNSNVDSSAQPSVAQLAGRFREHAAVARETPASKPTRRKPPCSLPLFPPKVELGQNGEEKSPSGASHPPKIKVKSSPLIEKLQANLAFDPAALLPGASPKSPGLKAIISPFHSPPSTPSSPGIRSHPSEAEEVPVSFDQPPEGTHLPSYNKVRTRGSIKRRPPSRRFRRSQSDCGDFRDYRAVEPSQENGAREENGDDVFPSKSKDPGSPQLNQEAMADGVEGTPRSAEKPRRRNTCNSTEKPEELVRTPEEANAGEKVGQNPDTASQGHPEVQAPSQTGSPEAENGCGSPREETAPGEHTDTGKATEGTASEERVADEDRLGQKSPDANMPEEEGVVREKAPQTSSGKAEGTTIAEPDTKQKEEAPLEPSCSPGADHAAGEITSEIQNEKAVSMDDIPIEDTRM | not soluble
6 | MSLNADKFRKIDAHSHIQVLGYPFNVSITPEEFLSLMEAYNIEIAIISDVNNDNIAKIVKEYPDKLVGIYWPNPRDEKSINETEKFLEKYEFRGIKLHPLLNMFSPSDPRVEKIMKIAEEFNVHVQIHSGHPPTSLPWQIEELARKFPEVKIVMVHMGHGNAYYIQGAIEIAGRNENIYLETSGMPMPSKIAEAYEVAPRRVVFGIDLPCHHPVVEIAKVLISGLNEKGMKRVFYENAKVLLEGHHHHHH | not soluble
7 | MQVKILDTTLRDGEQTPGVSLSVEQKVMIAEALDNLGVDIIEAGTAIASEGDFQAIKEISQRGLNAEICSFARIKREDIDAAADAGAESIFMVAPSSDIHINAKFPGKDRDYVIEKSVEAIEYAKERGLIVEFGAEDASRADLDFVIQLFKRAEEAKADRITFADTVGVLSPEKMEEIVRKIKAKVKLPLAIHCHDDFGLATANTIFGIKAGAEEFHGTINGLGERAGNAAIEEVVIALEYLYGIKTKIKKERLYNTSKLVEKLSRVVVPPNKPIVGDNAFTHESGIHTSALFRDAKSYEPISPEVVGRKRVIVLGKHAGRASVEAIMNELGYKATPEQMKEILARIKEIGDKGKRVTDADVRTIIETVLQIKREKKVKLEDLAIFSGKNVMPMASVKLKIDGQERIEAAVGLGPVDAAINAIRRAIKEFADIKLVSYHVDAITGGTDALVDVVVQLKKDNKIVTARGARTDIIMASVEAFIEGINMLF | not soluble
8 | MGSDKIHHHHHHMMKRFWFFLESYVFVWTNHEAVLLYDSLSGKGVTWKLTDPVRTIVMELMKKENLYCMELTEDDLNVPEVTEFVSEIRRNFIGDLYSQEEFRQKPLVIVPEVSVNENLENDVETMNNLELFGQKIVNNLRVVTMRLTGECSINCRYCQTVDKQIVWCRKQDNRLSYNEICRLLEQLKHTPVTLINFVGGNVLSYPFLDELLNELKKHSFGKCFYLYYKQSVDYEQIRAKLLNDPSVSIKFLIDYPVNEYAISACVALPNERVEYCFAVTSEEEFQEVSRIIDVYKLKANIYPFYTIDNLDFFEKYVFQTLEDVMALCRTKKDIFAHQLVNTHFFGTLYIDCDGKVYPNFNSKSIGTIDGYVKDWVFQEMKQGKMWHWTRDSLPACKECLYKYLCPSPSNYELVIGKPNLCHVKPWKC | not soluble
9 | SAFSGTWQVYAQENYEEFLRAISLPEEVIKLAKDVKPVTEIQQNGSDFTITSKTPGKTVTNSFTIGKEAEITTMDGKKLKCIVKLDGGKLVTRTDRFSHIQEIKAGEMVETLTVGGTTMIRKSKKILVP | soluble
10 | MKPEKIDCNFKLIYCEDEESKGGRLEFSLEEVLAISRNVYKRVRTNRKHHHHHH | soluble
11 | MNDEINEPPPNICEQCLGDEANIRMTKIPQGSECKICTLPFTLYHFKTSKRSNNIIKTLICVRCATQRNICQCCMLDSRWHIPIQLRDHLISLVNEENVMTEEAKNDMMKRFLSLKNVKLGGAQITSDPSEADNIVDKLKNILLRATSDGPSTPLIKNTTALYKNEKGANEVKNLEKYASVDISHILKKLPLNESFLKNPSTKSFFLYNIDASIPEWKITDTVSQLLGIKKWKDGNSLSLIVNHKAKCGGLRFQSSELGERFVSKISETLVTPKGLKRGVLLIDRFRIFIIPWSSGFSAASFGTNTAENIKLSLSLNKLIQLELGLSFPTKSTDNAKNDKKKTSKKVHKDRSKKSKPRANKLTI | soluble
12 | MLLRKGTVYVLVIRADLVNAMVAHARRDHPDEACGVLAGPEGSDRPERHIPMTNAERSPTFYRLDSGEQLKVWRAMEDADEVPVVIYHSHTATEAYPSRTDVKLATEPDAHYVLVSTRDPHRHELRSYRIVDGAVTEEPVNVVEQYLEHHHHHH | not soluble
13 | MSLTLTLTGTGGAQGVPAWGCECAACARARRSPQYRRQPCSGVVKFNDAITLIDAGLHDLADRWSPGSFQQFLLTHYHMDHVQGLFPLRWGVGDPIPVYGPPDEQGCDDLFKHPGLLDFSHTVEPFVVFDLQGLQVTPLPLNHSKLTFGYLLETAHSRVAWLSDTAGLPEKTLKFLRNNQPQVMVMDCSHPPRADAPRNHCDLNTVLALNQVIRSPRVILTHISHQFDAWLMENALPSGFEVGFDGMEIGVALEHHHHHH | soluble
14 | MGSDKIHHHHHHMKNTTLSSRKHRSLETKKKLLHSGYIVFINNGFQKTTITQIIKHAETGYGTAYVYFKNKDDLLTVLMEDVMNQFYDIAERSFSPQTKEEARNMIQNQVRAFLQLAEKERAILQVVEEAIGLSKEIRQKWDEIRERFINSITQDITYSQENGLAHPELNKETVARAWFAMNEIFLWTIVKNDKKLELEEIVHTLTEMYTTGLYK | not soluble
15 | MGSDKIHHHHHHMEALLQLKGIDKAFPGVKALSGAALNVYPGRVMALVGENGAGKSTMMKVLTGIYTRDAGTLLWLGKETTFTGPKSSQEAGIGIIHQELNLIPQLTIAENIFLGREFVNRFGKIDWKTMYAEADKLLAKLNLRFKSDKLVGDLSIGDQQMVEIAKVLSFESKVIIMDEPTDALTDTETESLFRVIRELKSQGRGIVYISHRMKEIFEICDDVTVFRDGQFIAEREVASLTEDSLIEMMVGRKLEDQYPHLDKAPGDIRLKVDNLCGPGVNDVSFTLRKGEILGVSGLMGAGRTELMKVLYGALPRTSGYVTLDGHEVVTRSPQDGLANGIVYISEDRKRDGLVLGMSVKENMSLTALRYFSRAGGSLKHADEQQAVSDFIRLFNVKTPSMEQAIGLLSGGNQQKVAIARGLMTRPKVLILDEPTRGVDVGAKKEIYQLINQFKADGLSIILVSSEMPEVLGMSDRIIVMHEGHLSGEFTREQATQEVLMAAAVGKLNRVNQE | not soluble
16 | MAKRYVGSCTTVLVGKKASIDGSTIIARNEDGESPLHPQKFVYVKPEDQPRHYQSVLSKFAIDLPADPLGYTATPEAEDGHGIWAAAGINSENIAMTSTETITTNSRVLGVDPLVAAGIGEEDMPTIVLPYIHSARDGVQRLGSLLEQYGTYESNGIAFADKDEVWYFESIGGHHWAAIRIPDDAYVVAPNRFNITDFDFASDDTMSSADLRDLIETYHLNPDTEGYNLRHIFGSATIKDTRYNNPRTWYGQKYFNPEFNTTPIDQDLPFICRTSKKISIEDVKFVESSHYENTPYDVYGTTGTPAQKKLYRPIGINRNQELHILQIRNNVPAAVAGIHWLAFGPNTFNAVVPFYANVNDTPAAYRETGDKFDVTKMYWLSNLLATFGDYDFSLFKDQEDVFEQKTVAACRHLQLTTDEAVKDAKDIGDHLTAANEQMATIAMANSNELLGQMVAAAAPKMKLQFTLHDLEHHHHHH | not soluble
17 | MKNKLLVLSLGALCVSQIWESNRASAVVSGEKNPYVSESLKLTNNKNKSRTVEEYKKSLDDLIWSFPNLDNERFDNPEYKEAMKKYQQRFMAEDEALKKFFSEEKKIKNGNTDNLDYLGLSHERYESVFNTLKKQSEEFLKEIEDIKKDNPELKDFNEEEQLKCDLELNKLENQILMLGKTFYQNYRDDVESLYSKLDLIMGYKDEERANKKAVNKRMLENKKEDLETIIDEFFSDIDKTRPNNIPVLEDEKQEEKNHKNMAQLKSDTEAAKSDESKRSKRSKRSLNTQNHKPASQEVSEQQKAEYDKRAEERKARFLDNQKIKKTPVVSLEYDFEHKQRIDNENDKKLVVSAPTKKPTSPTTYTETTTQVPMPTVERQTQQQIIYNAPKQLAGLNGESHDFTTTHQSPTTSNHTHNNVVEFEETSALPGRKSGSLVGISQIDSSHLTEREKRVIKREHVREAQKLVDNYKDTHSYKDRINAQQKVNTLSEGHQKRFNKQINKVYNGK | not soluble
18 | MNVSSSNEDTPNAPDMLSWCVHTQDNHPLPLPELKAKLLALGIDADTYALTTGLSMELEPTTLADAGYDRYQRPLLLTVDAARAWHAMRQAAVGDGIVLDAISGYRSYAYQFGILERKLAQGKTLQEILTVNAAPGFSEHHSGEALDIGMPGESPVEESFEGSSAFAWLHRHAGRFGFHLSYPRNNPHGIVYEPWHWRWRAR | not soluble
19 | GSGATSAAGKPQETFLDFNESPYGPSAKARAAMQRAAALCGRYDYDAQDALVGLFAKQNGIPAECVHAYCGSRQPLQYAVAAFTGKERGLVIADPSYDSVVGAAQAQGAKVAAVPLDAEAAHDIERMLAAAQRDAGLIYICNPNNPTGTLTPHERIVRAIERKPERSVVLVDEAYIHFSDAPSVVGLAVQRQDVLVLRTFSKLYGMAGARLGLAIGHPQLLARLERFGGHNVVPSPTAHAGLESLRDDDLVPRRKQQNAEVRERTIAWLRQQGFRCTASQSNCFMVDMRRPAELVIAELEKQRVHVGRPWASWPNWVRVTVGSEEEMQAFR | not soluble
20 | MSDDPIAASQAVVLSQAQAQNSQYALARTFATQKVSLEESVLSQVTTAIQTAQEKIVYAGNGTLSDDDRASLATDLQGIRDQLMNLANSTDGNGRYIFAGYKTEAAPFDQATGGYHGGEKSVTQQVDSARTMVIGHTGAQIFNSITSNAVPEPDGSDSEKNLFVMLDTAIAALKTPVEGNNVEKEKAAAAIDKTNRGLKNSLNNVLTVRAELGTQLSELSTLDSLGSDRALGQKLQMSNLVDVDWNSV | soluble
